Earlier results on one substance are cited in article PMC6478124.

The data set has as its target HDM2 (Homo sapiens) (UniProt Q00987).

Chain of HDM2 (Homo sapiens) (Q00987 whole entry): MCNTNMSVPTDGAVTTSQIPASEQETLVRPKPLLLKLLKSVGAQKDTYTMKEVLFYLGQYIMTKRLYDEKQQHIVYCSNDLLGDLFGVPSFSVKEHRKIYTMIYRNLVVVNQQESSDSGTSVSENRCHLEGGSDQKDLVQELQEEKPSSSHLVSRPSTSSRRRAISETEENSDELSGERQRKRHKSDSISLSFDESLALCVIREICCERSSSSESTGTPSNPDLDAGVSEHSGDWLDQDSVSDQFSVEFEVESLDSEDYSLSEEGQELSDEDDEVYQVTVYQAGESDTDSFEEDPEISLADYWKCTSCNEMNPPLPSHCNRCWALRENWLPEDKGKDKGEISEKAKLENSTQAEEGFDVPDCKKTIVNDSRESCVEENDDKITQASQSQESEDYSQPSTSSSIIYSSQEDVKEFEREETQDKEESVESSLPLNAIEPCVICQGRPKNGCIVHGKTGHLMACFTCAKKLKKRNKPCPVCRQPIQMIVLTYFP

For “stapled p53 transactivation domain peptide transactivation domain α-helix (from UniProt P04637)”, the Kd (commonly the constant that tells how readily two partners part at equilibrium) was 6.76 nM.
